The source of these data is patent US5840530.

As usually defined, the Kd is the constant that tells how readily two partners part at equilibrium.

Experiment [1] has as its target recombinant human IL-12 beta1 receptor protein (human). Put plainly: equilibrium binding of 125I-labeled IL-12 to transfected COS cells, Scatchard analysis, single site model.
For experiment [2], the target named is recombinant human IL-12 beta2 receptor protein expressed from the B5-10 plasmid on COS cells (human). The description is as above.

For the substance “recombinant human IL-12 (Interleukin-12) (from UniProt P29460) (ligand)”, the Kd in experiment [1] and in experiment [2] was 2 to 5 nM throughout.
